Measurements taken from doi:10.1101/2023.12.05.570295.

Target: mKate2-K67R/R197H, named Diogenes

OSER assay in live HeLa cells (CytERM fusion): whorl-free cells: 87%
Substance: mKate2-K67R/R197H, named Diogenes
